Laboratory results published in paper PMC4634129.

Experiments:
[1] = target: RsPIPS-Δ6N (chimeric construct: Af2299 extramembrane domain fused to the N-terminus of PIP synthase (Archaeoglobus fulgidus | Renibacterium salmoninarum)); assay: crystal structure; RsPIPS-Δ6N, apo, lipidic cubic phase (monoolein), 22 °C, 20% PEG 400, 0.1 M MES pH 6.7, 0.2 M lithium sulfate; space group P 21 21 2, one protomer in the asymmetric unit; 2.5 Å
[2] = target: RsPIPS-FL (chimeric construct: Af2299 extramembrane domain fused to the complete RsPIPS sequence abs (Archaeoglobus fulgidus | Renibacterium salmoninarum)); assay: crystal structure; RsPIPS-FL with CDP-DAG, lipidic cubic phase (2% CDP-dioleoylglycerol/98% monoolein), 22 °C, 30% PEG 300, 0.1 M MES pH 6.0, 0.1 M NaCl, 0.1 M MgCl2; space group P 21, two dimers in the asymmetric unit; 3.6 Å

Substance	stoichiometry N [1]	stoichiometry N [2]
RsPIPS-Δ6N (chimeric construct: Af2299 extramembrane domain fused to the N-terminus of PIP synthase (enzyme)	2	–
RsPIPS-FL (chimeric construct: Af2299 extramembrane domain fused to the complete RsPIPS sequence abs (enzyme)	–	2
